The results in this text go back to patent US20250171562A1.

To fix the notation:
B1: NIgG4B3A1(G4S)1 (Fc fusion)
chain 1: DVQLQESGGGLVQAGGSLRLSCAASGFIFRLAGMSWVRQAPGKGFEWVSGITMDGSTTNYADSVKGRFTISRDNSKNRLYLQMNSLKPEDTAVYYCARGAKGGYNDPRGQGTQVTVSGGGGSGPPCPPCPAPEFLGGPSVFLFPPKPKDTLMISRTPEVTCVVVDVSQEDPEVQFNWYVDGVEVHNAKTKPREEQFNSTYRVVSVLTVLHQDWLNGKEYKCKVSNKGLPSSIEKTISKAKGQPREPQVYTLPPCQEEMTKNQVSLWCLVKGFYPSDIAVEWESNGQPENNYKTTPPVLDSDGSFFLYSRLTVDKSRWQEGNVFSCSVMHEALHNHYTQKSLSLSLGK
chain 2: EVQLLESGGGLVQPGGSLRLSCAASGFTFGNYDMAWVRQAPGKRPEWVSSIDTGGDITHYADSVKGRFTISRDNAKNTLYLQMNSLRPEDTAVYWCATDEEYALGPNEFDYYGQGTLVTVSSGGGGSGPPCPPCPAPEFLGGPSVFLFPPKPKDTLMISRTPEVTCVVVDVSQEDPEVQFNWYVDGVEVHNAKTKPREEQFNSTYRVVSVLTVLHQDWLNGKEYKCKVSNKGLPSSIEKTISKAKGQPREPQVCTLPPSQEEMTKNQVSLSCAVKGFYPSDIAVEWESNGQPENNYKTTPPVLDSDGSFFLVSRLTVDKSRWQEGNVFSCSVMHEALHNHYTQKSLSLSLGK
B2: CIgE4A1A1(GS3) (Fc fusion)
chain 1: GPPCPPCPAPEFLGGPSVFLFPPKPKDTLMISRTPEVTCVVVDVSQEDPEVQFNWYVDGVEVHNAKTKPREEQFNSTYRVVSVLTVLHQDWLNGKEYKCKVSNKGLPSSIEKTISKAKGQPREPQVYTLPPCQEEMTKNQVSLWCLVKGFYPSDIAVEWESNGQPENNYKTTPPVLDSDGSFFLYSRLTVDKSRWQEGNVFSCSVMHEALHNHYTQKSLSLSLGKGGGGSGGGGSGGGGSEVQLLESGGGLVQPGGSLRLSCAASGFTFGNYDMAWVRQAPGKRPEWVSSIDTGGDITHYADSVKGRFTISRDNAKNTLYLQMNSLRPEDTAVYWCATDEEYALGPNEFDYYGQGTLVTVSS
chain 2: B2 chain 1 with Y127C, C132S, W144S, L146A, Y185V
B3: CIgG4B3A1(G4S)3 (Fc fusion)
chain 1: GPPCPPCPAPEFLGGPSVFLFPPKPKDTLMISRTPEVTCVVVDVSQEDPEVQFNWYVDGVEVHNAKTKPREEQFNSTYRVVSVLTVLHQDWLNGKEYKCKVSNKGLPSSIEKTISKAKGQPREPQVYTLPPCQEEMTKNQVSLWCLVKGFYPSDIAVEWESNGQPENNYKTTPPVLDSDGSFFLYSRLTVDKSRWQEGNVFSCSVMHEALHNHYTQKSLSLSLGKGGGGSGGGGSGGGGSDVQLQESGGGLVQAGGSLRLSCAASGFIFRLAGMSWVRQAPGKGFEWVSGITMDGSTTNYADSVKGRFTISRDNSKNRLYLQMNSLKPEDTAVYYCARGAKGGYNDPRGQGTQVTVS
chain 2: B2 chain 1 with Y127C, C132S, W144S, L146A, Y185V
B4: CIgG4B3A1(G4S)1 (Fc fusion)
chain 1: GPPCPPCPAPEFLGGPSVFLFPPKPKDTLMISRTPEVTCVVVDVSQEDPEVQFNWYVDGVEVHNAKTKPREEQFNSTYRVVSVLTVLHQDWLNGKEYKCKVSNKGLPSSIEKTISKAKGQPREPQVYTLPPCQEEMTKNQVSLWCLVKGFYPSDIAVEWESNGQPENNYKTTPPVLDSDGSFFLYSRLTVDKSRWQEGNVFSCSVMHEALHNHYTQKSLSLSLGKGGGGSDVQLQESGGGLVQAGGSLRLSCAASGFIFRLAGMSWVRQAPGKGFEWVSGITMDGSTTNYADSVKGRFTISRDNSKNRLYLQMNSLKPEDTAVYYCARGAKGGYNDPRGQGTQVTVS
chain 2: GPPCPPCPAPEFLGGPSVFLFPPKPKDTLMISRTPEVTCVVVDVSQEDPEVQFNWYVDGVEVHNAKTKPREEQFNSTYRVVSVLTVLHQDWLNGKEYKCKVSNKGLPSSIEKTISKAKGQPREPQVCTLPPSQEEMTKNQVSLSCAVKGFYPSDIAVEWESNGQPENNYKTTPPVLDSDGSFFLVSRLTVDKSRWQEGNVFSCSVMHEALHNHYTQKSLSLSLGKGGGGSEVQLLESGGGLVQPGGSLRLSCAASGFTFGNYDMAWVRQAPGKRPEWVSSIDTGGDITHYADSVKGRFTISRDNAKNTLYLQMNSLRPEDTAVYWCATDEEYALGPNEFDYYGQGTLVTVSS
B5: CIgE4A1A1(GS)2 (Fc fusion)
chain 1: GPPCPPCPAPEFLGGPSVFLFPPKPKDTLMISRTPEVTCVVVDVSQEDPEVQFNWYVDGVEVHNAKTKPREEQFNSTYRVVSVLTVLHQDWLNGKEYKCKVSNKGLPSSIEKTISKAKGQPREPQVYTLPPCQEEMTKNQVSLWCLVKGFYPSDIAVEWESNGQPENNYKTTPPVLDSDGSFFLYSRLTVDKSRWQEGNVFSCSVMHEALHNHYTQKSLSLSLGKGGGGSGGGGSEVQLLESGGGLVQPGGSLRLSCAASGFTFGNYDMAWVRQAPGKRPEWVSSIDTGGDITHYADSVKGRFTISRDNAKNTLYLQMNSLRPEDTAVYWCATDEEYALGPNEFDYYGQGTLVTVSS
chain 2: B5 chain 1 with Y127C, C132S, W144S, L146A, Y185V
B6: CIgG4B3A1(G4S)2 (Fc fusion)
chain 1: GPPCPPCPAPEFLGGPSVFLFPPKPKDTLMISRTPEVTCVVVDVSQEDPEVQFNWYVDGVEVHNAKTKPREEQFNSTYRVVSVLTVLHQDWLNGKEYKCKVSNKGLPSSIEKTISKAKGQPREPQVYTLPPCQEEMTKNQVSLWCLVKGFYPSDIAVEWESNGQPENNYKTTPPVLDSDGSFFLYSRLTVDKSRWQEGNVFSCSVMHEALHNHYTQKSLSLSLGKGGGGSGGGGSDVQLQESGGGLVQAGGSLRLSCAASGFIFRLAGMSWVRQAPGKGFEWVSGITMDGSTTNYADSVKGRFTISRDNSKNRLYLQMNSLKPEDTAVYYCARGAKGGYNDPRGQGTQVTVS
chain 2: B5 chain 1 with Y127C, C132S, W144S, L146A, Y185V
B7: CIgG4B3A1(RS) (Fc fusion)
chain 1: GPPCPPCPAPEFLGGPSVFLFPPKPKDTLMISRTPEVTCVVVDVSQEDPEVQFNWYVDGVEVHNAKTKPREEQFNSTYRVVSVLTVLHQDWLNGKEYKCKVSNKGLPSSIEKTISKAKGQPREPQVYTLPPCQEEMTKNQVSLWCLVKGFYPSDIAVEWESNGQPENNYKTTPPVLDSDGSFFLYSRLTVDKSRWQEGNVFSCSVMHEALHNHYTQKSLSLSLGKRSDVQLQESGGGLVQAGGSLRLSCAASGFIFRLAGMSWVRQAPGKGFEWVSGITMDGSTTNYADSVKGRFTISRDNSKNRLYLQMNSLKPEDTAVYYCARGAKGGYNDPRGQGTQVTVS
chain 2: GPPCPPCPAPEFLGGPSVFLFPPKPKDTLMISRTPEVTCVVVDVSQEDPEVQFNWYVDGVEVHNAKTKPREEQFNSTYRVVSVLTVLHQDWLNGKEYKCKVSNKGLPSSIEKTISKAKGQPREPQVCTLPPSQEEMTKNQVSLSCAVKGFYPSDIAVEWESNGQPENNYKTTPPVLDSDGSFFLVSRLTVDKSRWQEGNVFSCSVMHEALHNHYTQKSLSLSLGKRSEVQLLESGGGLVQPGGSLRLSCAASGFTFGNYDMAWVRQAPGKRPEWVSSIDTGGDITHYADSVKGRFTISRDNAKNTLYLQMNSLRPEDTAVYWCATDEEYALGPNEFDYYGQGTLVTVSS
B8: NIgG4B3A1(RS) (Fc fusion)
chain 1: DVQLQESGGGLVQAGGSLRLSCAASGFIFRLAGMSWVRQAPGKGFEWVSGITMDGSTTNYADSVKGRFTISRDNSKNRLYLQMNSLKPEDTAVYYCARGAKGGYNDPRGQGTQVTVSRSGPPCPPCPAPEFLGGPSVFLFPPKPKDTLMISRTPEVTCVVVDVSQEDPEVQFNWYVDGVEVHNAKTKPREEQFNSTYRVVSVLTVLHQDWLNGKEYKCKVSNKGLPSSIEKTISKAKGQPREPQVYTLPPCQEEMTKNQVSLWCLVKGFYPSDIAVEWESNGQPENNYKTTPPVLDSDGSFFLYSRLTVDKSRWQEGNVFSCSVMHEALHNHYTQKSLSLSLGK
chain 2: EVQLLESGGGLVQPGGSLRLSCAASGFTFGNYDMAWVRQAPGKRPEWVSSIDTGGDITHYADSVKGRFTISRDNAKNTLYLQMNSLRPEDTAVYWCATDEEYALGPNEFDYYGQGTLVTVSSRSGPPCPPCPAPEFLGGPSVFLFPPKPKDTLMISRTPEVTCVVVDVSQEDPEVQFNWYVDGVEVHNAKTKPREEQFNSTYRVVSVLTVLHQDWLNGKEYKCKVSNKGLPSSIEKTISKAKGQPREPQVCTLPPSQEEMTKNQVSLSCAVKGFYPSDIAVEWESNGQPENNYKTTPPVLDSDGSFFLVSRLTVDKSRWQEGNVFSCSVMHEALHNHYTQKSLSLSLGK

Positions count from the first letter of the chain named. Numbers in names are those of the source.

For the assay, the target named is mixture of three Der p 2 specific recombinant human IgE clones H10, H12, P4E (human) (UniProt P01854). Put plainly: RBL-SX38 IgE displacement, FACS.
Chain of mixture of three Der p 2 specific recombinant human IgE clones H10, H12, P4E (human) (P01854 other isoform, or with tags, fused parts or gaps): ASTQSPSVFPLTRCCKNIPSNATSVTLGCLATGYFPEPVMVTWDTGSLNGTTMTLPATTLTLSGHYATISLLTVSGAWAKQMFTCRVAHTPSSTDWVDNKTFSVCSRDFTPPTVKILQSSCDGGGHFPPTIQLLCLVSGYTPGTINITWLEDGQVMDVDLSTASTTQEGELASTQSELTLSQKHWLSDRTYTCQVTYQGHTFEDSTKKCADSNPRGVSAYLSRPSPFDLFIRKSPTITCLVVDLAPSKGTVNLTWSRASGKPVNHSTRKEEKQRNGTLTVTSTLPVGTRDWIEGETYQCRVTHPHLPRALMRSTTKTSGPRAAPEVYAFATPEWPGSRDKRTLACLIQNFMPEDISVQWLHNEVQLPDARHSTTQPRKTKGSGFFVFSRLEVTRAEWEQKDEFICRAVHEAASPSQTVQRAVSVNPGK
With B1, the Max effect/effect 1 µM turned out to be 94%.
On to B2, for which the Max effect/effect 1 µM amounted to 10%.
Regarding B3, the Max effect/effect 1 µM was found to be 76%.
B4: the Max effect/effect 1 µM worked out at 12%.
With B5 the figure was 19%; with B6, 28%; with B7, 1%.
The figure for B8 is 94%.
